Experimental data taken from patent US20230174619A1 (published 2023).
Numbering of substitutions follows the chain as printed. Names and notes keep the numbering of the source.

T1: murine PD-1-Fc (murine, UniProt Q02242 25-167)
T1 construct: Surface-immobilized in the BLI assay; It differs from the selection antigen (murine PD-1 31-150, C83S, AviTag); also called murine PD-iFc; not shown: Fc portion
T1 sequence (looked up): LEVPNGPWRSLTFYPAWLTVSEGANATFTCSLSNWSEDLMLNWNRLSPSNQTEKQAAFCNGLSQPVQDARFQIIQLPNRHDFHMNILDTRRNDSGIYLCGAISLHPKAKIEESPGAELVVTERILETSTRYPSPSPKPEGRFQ

B1: PD-L1 wt, distal Ig-like domain of murine PD-L1 (amino acids 18-132) with C113R, His-tag fusion expressed in E. coli (ligand)
chain: AFTITAPKDLYVVEYGSNVTMECRFPVERELDLLALVVYWEKEDEQVIQFVAGEEDLKPQHSNFRGRASLPKDQLLKGNAALQITDVKLQDAGVYRCIISYGGADYKRITLKVNA
notes: also called unmodified PD-L1 wt; wt PD-L1; not shown: His-tag
B2: PD-L1 variant 214 Fc fusion protein (Ig-like V-type domain fused to human Fc), expressed in Expi293F (Fc fusion)
chain: B1 chain with V37L, Y39D, Q49R, V51E, A52S, P59H
notes: not shown: linker/hinge and human Fc
B3: PD-L1 variant 214, distal Ig-like domain of murine PD-L1 (amino acids 18-132), His-tag fusion expressed in E. coli (ligand)
chain: B1 chain with V37L, Y39D, Q49R, V51E, A52S, P59H
notes: not shown: His-tag
B4: PD-L1 variant 258 Fc fusion protein (Ig-like V-type domain fused to human Fc), expressed in Expi293F (Fc fusion)
chain: B1 chain with Y39S, P59F, I98L
notes: as for B2
B5: PD-L1 variant 258, distal Ig-like domain of murine PD-L1 (amino acids 18-132), His-tag fusion expressed in E. coli (ligand)
chain: B1 chain with Y39S, P59F, I98L
notes: not shown: His-tag
B6: PD-L1 wt Fc fusion protein (Ig-like V-type domain of PD-L1 fused to human Fc), expressed in Expi293F (Fc fusion)
chain: B1 chain
notes: also called wt (200); wt protein; not shown: linker/hinge and human Fc

Key:
[1] = molecular target: T1, murine PD-1-Fc; experiment: bio-layer interferometry (Octet), murine PD-1-Fc surface-immobilized, His-tagged PD-L1 domain
Method: Amino acids are indicated and shown as sticks. (B) Structural alignment indicates an identical structural conformation. (C)-(E) Representative bio-layer interferometry sensograms for PD-L1 wt (C) and two indicated engineered PD-L1 variants (D, E). Raw data (thick lines) was fitted using 1:1 langmuir interaction model (thin lines).
(§1) Phage selections were performed using as an antigen recombinant murine PD-1 protein (amino acids 31-150) with C83S substitution fused to AviTag peptide, biotinylated in vivo and purified from E. coli. After a couple of selection rounds, binding of enriched phage clones were analyzed by ELISA and the selected PD-L1 variants were sequenced. In a competitive phage IC₅₀ ELISA, the 5 PD-L1 variants were examined for their binding properties by competing with 500 nM or 50 nM in solution with PD-1-Fc (FIG. 1).
Amino acid positions 54, 56, 63, 66, 68, 69, 76, 113, 115, and 121-125 were randomized. For the selected variants, dashes represent no amino acid change relative to the wild type sequence. Kd values for the interaction of the variants and murine PD-1 were obtained by bio-layer interferometry; n/a—not available. Table 2 indicates R113 because the original C113 of the murine sequence was substituted already prior to library construction, as indicated above.

[2] = molecular target: T1, murine PD-1-Fc; experiment: bio-layer interferometry 'as before', dimeric Fc fusion (avidity)
Method: as §1
(§2) After expression and purification of the Fc fusion proteins, we obtained with one step purification on a protein A column, good purity and an average yield of 200 mg/L Expi293F culture (FIG. 4). In order to verify whether the purified protein is still binding the PD-1, we determined PD-1/PD-L1 affinities as before.

[3] = molecular target: T1, murine PD-1-Fc; experiment: bio-layer interferometry, Fc fusions; reference wt Fc fusion
[4] = molecular target: T1, murine PD-1-Fc; experiment: bio-layer interferometry (Octet), murine PD-1-Fc surface-immobilized; reference PD-L1 wt in the same format
[5] = molecular target: T1, murine PD-1-Fc; experiment: bio-layer interferometry, monomeric variant 258 as retold in the text (Table 1 prints 2.17)
[6] = molecular target: T1, murine PD-1-Fc; experiment: bio-layer interferometry 'in similar experiments', dimeric Fc fusion (avidity)
Method: as §1, §2

Row | Binder | Kd [1] | Kd [2] | fold improved affinity against the wt Fc fusion [3] | fold advantage in binding compared to PD-L1 wt [4] | also measured
1 | B1 | 66 nM | – | – | – | –
2 | B2 | – | 0.088 nM | ≤ 8 fold | – | –
3 | B3 | 2.54 nM | – | – | ≤ 30 fold | –
4 | B4 | – | 0.077 nM | ≤ 8 fold | – | –
5 | B5 | 2.17 nM | – | – | ≤ 30 fold | Kd [5]: 2.14 nM
6 | B6 | – | – | – | – | Kd [6]: ~0.6 nM
